Reference: the nanobody polyreactivity screen of Harvey et al. (2022)

Assay: yeast display, Sf9 membrane polyspecificity reagent, FACS + sequencing; frameworks hold sequencing errors
Method in brief: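 A synthetic nanobody library was expressed on Saccharomyces cerevisiae BJ5465 by galactose induction for 36–48 hours. The library was stained for 1 hour at 4 °C with 10% biotinylated, detergent-solubilized Sf9 membrane reagent and enriched with streptavidin microbeads before FACS. Low and high (top ~1%) gates were set on anti-HA fluorescence for expression and streptavidin fluorescence for reagent binding, and each polyreactivity label reflects the gate of origin.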

| Sequence | polyreactivity (PSR sort gate) |
| --- | --- |
| QVQLVESGGGLVQAGGSLRLSCAPSGSIFAYYAMGWYRPAPGKERELVAAISKSGGRTYYADSVKGRFTISRDNAKNTVYLQMNSLKPEDTAVYYCAADGPGYTYDYWGQGTQVTVSS | high polyreactivity |
| QVQLVESGGGLVQAGGSLRLSCAPSGSIFGGYAMGWYRQAPGKERELVAGITYSGDSTYYADSVKGRFTISRDNAKYTVYLQMNSLKPEDTAVYYCNADQRVDHDDFDYWGQGTQVTVSS | low polyreactivity |
| QVQLVESGGGLVQAGGSLRLSCAPSGSIFGVYAMGWYRQAPGKERELVDTISWSAGSTYYADSVKGRFTISRDNAKNTVYLQMNSLKPVDTAVYYCGAGVRWLGLYDLFTFDYWGQGTQVTVSS | low polyreactivity |
| QVQLVESGGGLVQAGGSLRLSCAPSGSIFWLYDMGWYRPAPGKERELVAAIDSGDSTKYADSVKGRFTISRDNAKNTVYLQMNSLKPEDTAVYYCNASRRYHVRAPYDYWGQGTQVTVSS | low polyreactivity |
| QVQLVESGGGLVQAGGSLRLSCAPSGSILWLNAMGWYRQAPGKERELVADITRGGSTYYADSVKGRFTISRDNAKNTVYLQMNSLKPEDTAVYYCAAKRGKTYQRFDYWGQGTQVTVSS | high polyreactivity |
| QVQLVESGGGLVQAGGSLRLSCAPSGSTFRTYAMGWYRQAPGKERELVAAISSGDNTNYADSVKGRFTISRDNAKNTAYLQMNSLKPEDTAVYYCASRAYRWRSFYTMYYCGQGTQVTVSS | high polyreactivity |
| QVQLVESGGGLVQAGGSLRLSCAPSGSTFRYNAMGWYRQAPGKERELVAAITFSGDSTSYADSVKGRFTISRDNAKNTVYLQMNSLKPEDTAVYYCAVDTWNGDGSGYSLEFEYWGQGTQVTVSS | low polyreactivity |
| QVQLVESGGGLVQAGGSLRLSCAPSGSTFYKYVMGWYRQAPGKERELVAAISQGGSSTYYADSVKGRFTISRDNAKYTVYVLMNSLKPEDTAVYYCAAQYWWWSRFEYDSWGQGTQVTVSS | low polyreactivity |
| QVQLVESGGGLVQAGGSLRLSCAPSGTTFTRNAMGWYREAPGKERELVAAISFSGGSTYYADSVKGRFTISRDNAKNTVYIQMNSLKPEDTAVYYCATKVEYRYYYWGQGTQVTVSS | high polyreactivity |
| QVQLVESGGGLVQAGGSLRLSCAPSGYIFYDNAMGWYRQAPGKEREFVAAITFSGDSTDYADSVKGRFTISRDNAKNTVYLQMNSLKPEDTAVYYFNTVYYRYYIELYFSSYDYWGQGTQVTVSS | high polyreactivity |
| QVQLVESGGGLVQAGGSLRLSCAPTGFIFFTYAMGWYRQAPGKERELVAAISQSGASTYYADSVKGRFTISRDNAKKTVYLQMNSLKPEDSAVDYCAATYSFRYWIQRYNYWGQGTQVTVSS | low polyreactivity |
| QVQLVESGGGLVQAGGSLRLSCASSGFIFFSYAMGWYRQAPGKERELVASISRSGGTTYYADSVKGRFTISRDNAKNTVYLQMNSLKPEDTAVYYCAARTYSYYSRDYWGQVTQVTVSS | high polyreactivity |
| QVQLVESGGGLVQAGGSLRLSCASSGFIFHHYGMGRSRQAPGKERELVAGDTHYADSVKGRFTISRDNAKNTVYLQMNSLKPEDTAVYYCNAYWKDDFEDGPGRRGMDYWGQGTLVTVSS | low polyreactivity |
| QVQLVESGGGLVQAGGSLRLSCASSGFIFRWYTMGWYRQAPGKERELVAAISWSSGSTSYADSVKGRFTISRDNAKNTVYLQMNSLKPEDTAVYYCAAVWRTASTQYYYWGQGTQVTVSS | high polyreactivity |
| QVQLVESGGGLVQAGGSLRLSCASSGFIFRYYAMGWYRQAPGKERELVAAISWRGDSTSYADSVKGRFTISRDNAKYTVYLQMNSLKPEDTAVYYCAAGRYLAYLYWGRYEYYYWGQGTQVTVSS | low polyreactivity |
| QVQLVESGGGLVQAGGSLRLSCASSGFIFVNYAMEWYRQAPGKERELVAAISRNGGRTYYADSVKGRFTISRDNAKNTVYFQMNSLKPEDTAVYYCTAELSGKRDYWGQGTQVTVSS | high polyreactivity |
